54 sequences from paper PMC3334620 can be followed below.

Details in all cases: 200 nM
Data set [1] has as its target T1, Stb5 (Saccharomyces cerevisiae) (UniProt P38699).
T1 sequence: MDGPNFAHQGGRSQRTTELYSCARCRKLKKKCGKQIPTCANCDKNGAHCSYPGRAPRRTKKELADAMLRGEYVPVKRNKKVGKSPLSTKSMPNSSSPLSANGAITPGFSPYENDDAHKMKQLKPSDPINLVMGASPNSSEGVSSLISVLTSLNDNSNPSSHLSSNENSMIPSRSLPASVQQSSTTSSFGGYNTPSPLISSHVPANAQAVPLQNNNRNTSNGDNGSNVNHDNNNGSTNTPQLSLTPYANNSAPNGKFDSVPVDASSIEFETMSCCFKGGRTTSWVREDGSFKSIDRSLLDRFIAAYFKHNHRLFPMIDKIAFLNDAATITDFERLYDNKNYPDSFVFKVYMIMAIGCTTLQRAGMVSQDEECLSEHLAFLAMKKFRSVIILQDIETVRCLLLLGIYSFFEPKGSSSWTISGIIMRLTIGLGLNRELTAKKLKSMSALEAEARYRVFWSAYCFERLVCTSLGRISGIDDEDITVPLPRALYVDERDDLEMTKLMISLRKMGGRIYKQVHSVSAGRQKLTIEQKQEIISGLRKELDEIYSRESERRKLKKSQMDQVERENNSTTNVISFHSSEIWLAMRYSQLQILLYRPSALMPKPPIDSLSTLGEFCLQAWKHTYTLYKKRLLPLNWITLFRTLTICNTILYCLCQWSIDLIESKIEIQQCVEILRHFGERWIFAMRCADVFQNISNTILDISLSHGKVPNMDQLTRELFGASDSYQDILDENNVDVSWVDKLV

Data set [2] deals with T2, Stp1 (Saccharomyces cerevisiae) (UniProt Q00947).
T2 sequence: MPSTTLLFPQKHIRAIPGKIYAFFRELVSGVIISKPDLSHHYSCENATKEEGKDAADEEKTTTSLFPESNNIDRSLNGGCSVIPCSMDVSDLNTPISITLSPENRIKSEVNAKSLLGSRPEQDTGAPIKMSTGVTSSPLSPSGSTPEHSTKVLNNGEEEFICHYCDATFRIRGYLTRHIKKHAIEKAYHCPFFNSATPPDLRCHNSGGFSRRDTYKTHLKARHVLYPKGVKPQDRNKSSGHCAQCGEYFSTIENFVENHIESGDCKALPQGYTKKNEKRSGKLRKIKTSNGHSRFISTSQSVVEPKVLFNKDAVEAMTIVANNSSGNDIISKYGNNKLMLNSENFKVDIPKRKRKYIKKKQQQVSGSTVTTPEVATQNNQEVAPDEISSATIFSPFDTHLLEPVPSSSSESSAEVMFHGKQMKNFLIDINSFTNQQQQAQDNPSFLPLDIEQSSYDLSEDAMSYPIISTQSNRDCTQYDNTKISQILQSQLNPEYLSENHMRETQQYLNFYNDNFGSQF

Data set [3] concerns the target T3, Sut1 (Saccharomyces cerevisiae) (UniProt P53032).
T3 sequence: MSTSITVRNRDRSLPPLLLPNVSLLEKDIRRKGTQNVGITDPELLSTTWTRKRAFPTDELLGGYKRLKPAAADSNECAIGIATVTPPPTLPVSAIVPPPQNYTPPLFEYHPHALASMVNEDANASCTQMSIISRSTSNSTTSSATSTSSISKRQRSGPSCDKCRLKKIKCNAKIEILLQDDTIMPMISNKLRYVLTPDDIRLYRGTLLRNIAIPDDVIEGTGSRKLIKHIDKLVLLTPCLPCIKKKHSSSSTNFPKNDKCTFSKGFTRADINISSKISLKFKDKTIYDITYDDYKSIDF

The target in data set [4] is T4, Sko1 (Saccharomyces cerevisiae) (UniProt Q02100).
T4 sequence: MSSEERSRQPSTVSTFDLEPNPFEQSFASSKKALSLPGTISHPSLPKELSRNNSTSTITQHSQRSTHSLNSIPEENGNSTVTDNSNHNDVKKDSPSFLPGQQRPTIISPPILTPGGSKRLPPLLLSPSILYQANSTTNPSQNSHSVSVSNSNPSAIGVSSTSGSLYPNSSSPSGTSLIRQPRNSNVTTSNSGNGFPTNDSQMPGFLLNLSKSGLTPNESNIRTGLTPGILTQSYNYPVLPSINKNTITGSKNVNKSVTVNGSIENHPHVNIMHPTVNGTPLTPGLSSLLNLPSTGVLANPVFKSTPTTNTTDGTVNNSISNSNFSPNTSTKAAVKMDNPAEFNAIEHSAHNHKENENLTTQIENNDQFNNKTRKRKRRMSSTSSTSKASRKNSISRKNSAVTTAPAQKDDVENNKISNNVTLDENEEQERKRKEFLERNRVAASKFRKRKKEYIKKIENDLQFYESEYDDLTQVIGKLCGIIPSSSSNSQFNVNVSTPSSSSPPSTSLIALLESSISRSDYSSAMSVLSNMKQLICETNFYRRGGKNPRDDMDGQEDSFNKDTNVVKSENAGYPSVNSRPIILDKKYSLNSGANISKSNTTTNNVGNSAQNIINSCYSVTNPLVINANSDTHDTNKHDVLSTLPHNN

“CGGTGATA (double strand) [8-mer CGGTGATA]” had a binding signal (PBM E-score (-0.5 to 0.5)) in data set [1] of 0.488.
On to “CGCGGCGC (double strand) [8-mer CGCGGCGC]”, for which the binding signal (PBM E-score (-0.5 to 0.5)) in data set [2] came to 0.492.
In the case of “CGGGGTTA (double strand) [8-mer CGGGGTTA]”, the binding signal (PBM E-score (-0.5 to 0.5)) in data set [1] was 0.495.
On the same count and under the same terms, under “AAACACCG (double strand) [8-mer AAACACCG]” stands 0.491.
“AACTCCGG (double strand) [8-mer AACTCCGG]” gave a binding signal (PBM E-score (-0.5 to 0.5)) in data set [3] of 0.499.
Consider “CGGTCTTA (double strand) [8-mer CGGTCTTA]”, for which, in data set [1], the binding signal (PBM E-score (-0.5 to 0.5)) worked out at 0.48.
With “TGACGTCA (double strand) [8-mer TGACGTCA]”, the binding signal (PBM E-score (-0.5 to 0.5)) in data set [4] came out at 0.499.
Regarding “CGCCGTGC (double strand) [8-mer CGCCGTGC]”, the binding signal (PBM E-score (-0.5 to 0.5)) in data set [2] was 0.493.
The same measure, in the same setting: under “CACGGCAC (double strand) [8-mer CACGGCAC]” stands 0.491; under “GCGCCGCA (double strand) [8-mer GCGCCGCA]”, 0.491.
In data set [4], “ATGACGTG (double strand) [8-mer ATGACGTG]” gave a binding signal (PBM E-score (-0.5 to 0.5)) of 0.496.
In the case of “CGCACGGC (double strand) [8-mer CGCACGGC]”, the binding signal (PBM E-score (-0.5 to 0.5)) in data set [2] stood at 0.488.
In data set [3], “AAACTCCG (double strand) [8-mer AAACTCCG]” came in with a binding signal (PBM E-score (-0.5 to 0.5)) of 0.498.
Regarding “AATGACGT (double strand) [8-mer AATGACGT]”, the binding signal (PBM E-score (-0.5 to 0.5)) in data set [4] is 0.498.
“AAAGTCCG (double strand) [8-mer AAAGTCCG]” gave a binding signal (PBM E-score (-0.5 to 0.5)) in data set [3] of 0.496.
With “ACGTCATG (double strand) [8-mer ACGTCATG]”, the binding signal (PBM E-score (-0.5 to 0.5)) in data set [4] was 0.497.
In data set [3], “CGGAGTTC (double strand) [8-mer CGGAGTTC]” had a binding signal (PBM E-score (-0.5 to 0.5)) of 0.498.
Consider “AAGTCCGA (double strand) [8-mer AAGTCCGA]”, for which, in data set [3], the binding signal (PBM E-score (-0.5 to 0.5)) amounted to 0.498.
On the same count and under the same terms, the same measure for “ACTCCGAG (double strand) [8-mer ACTCCGAG]”: 0.494.
Sequence “CGGACTTA (double strand) [8-mer CGGACTTA]” registered a binding signal (PBM E-score (-0.5 to 0.5)) in data set [1] of 0.483.
In the case of “CGGACTTC (double strand) [8-mer CGGACTTC]”, in data set [3], the binding signal (PBM E-score (-0.5 to 0.5)) turned out to be 0.496.
For the sequence “AACCCCGC (double strand) [8-mer AACCCCGC]”, the binding signal (PBM E-score (-0.5 to 0.5)) in data set [1] came out at 0.484.
In data set [2], “CGCGGCAC (double strand) [8-mer CGCGGCAC]” yielded a binding signal (PBM E-score (-0.5 to 0.5)) of 0.49.
For “CGGTGCTA (double strand) [8-mer CGGTGCTA]”, the binding signal (PBM E-score (-0.5 to 0.5)) in data set [1] was found to be 0.488.
Turning to “ACGGCGCC (double strand) [8-mer ACGGCGCC]”, the binding signal (PBM E-score (-0.5 to 0.5)) in data set [2] turned out to be 0.49.
In data set [3], “AACTCCGA (double strand) [8-mer AACTCCGA]” registered a binding signal (PBM E-score (-0.5 to 0.5)) of 0.499.
As for “CGGCGTTA (double strand) [8-mer CGGCGTTA]”, the binding signal (PBM E-score (-0.5 to 0.5)) in data set [1] came to 0.49.
Take “GTGCCGTA (double strand) [8-mer GTGCCGTA]”: the binding signal (PBM E-score (-0.5 to 0.5)) in data set [2] is 0.493.
The same measure, in the same setting: the same measure for “ACACGGCA (double strand) [8-mer ACACGGCA]”: 0.49; for “ATACGGCG (double strand) [8-mer ATACGGCG]”: 0.49.
In turn, “CGGCATTA (double strand) [8-mer CGGCATTA]” returned a binding signal (PBM E-score (-0.5 to 0.5)) in data set [1] of 0.489.
On the same count and under the same terms, the same measure for “CGGAGATA (double strand) [8-mer CGGAGATA]”: 0.48.
In data set [4], “ACGTCATC (double strand) [8-mer ACGTCATC]” returned a binding signal (PBM E-score (-0.5 to 0.5)) of 0.498.
In data set [2], “GCACGGCA (double strand) [8-mer GCACGGCA]” gave a binding signal (PBM E-score (-0.5 to 0.5)) of 0.49.
“ATACGTCA (double strand) [8-mer ATACGTCA]” showed a binding signal (PBM E-score (-0.5 to 0.5)) in data set [4] of 0.494.
Take “ACGGCGCG (double strand) [8-mer ACGGCGCG]”: the binding signal (PBM E-score (-0.5 to 0.5)) in data set [2] worked out at 0.492.
On to “GCGCCGTA (double strand) [8-mer GCGCCGTA]”, for which the binding signal (PBM E-score (-0.5 to 0.5)) in data set [2] was found to be 0.495.
Sequence “ACTCCGAA (double strand) [8-mer ACTCCGAA]” showed a binding signal (PBM E-score (-0.5 to 0.5)) in data set [3] of 0.495.
In the case of “CGGTGTTA (double strand) [8-mer CGGTGTTA]”, the binding signal (PBM E-score (-0.5 to 0.5)) in data set [1] was found to be 0.496.
Consider “AAGTCCGG (double strand) [8-mer AAGTCCGG]”, for which, in data set [3], the binding signal (PBM E-score (-0.5 to 0.5)) is 0.497.
Sequence “ATGACGTC (double strand) [8-mer ATGACGTC]” returned a binding signal (PBM E-score (-0.5 to 0.5)) in data set [4] of 0.497.
As to “AACACCGC (double strand) [8-mer AACACCGC]”, the binding signal (PBM E-score (-0.5 to 0.5)) in data set [1] is 0.48.
In turn, “ATGACGTA (double strand) [8-mer ATGACGTA]” yielded a binding signal (PBM E-score (-0.5 to 0.5)) in data set [4] of 0.5.
Take “CGGCCTTA (double strand) [8-mer CGGCCTTA]”: in data set [1], the binding signal (PBM E-score (-0.5 to 0.5)) came to 0.481.
In data set [4], “ACGTCATA (double strand) [8-mer ACGTCATA]” yielded a binding signal (PBM E-score (-0.5 to 0.5)) of 0.498.
On to “AACTCCGT (double strand) [8-mer AACTCCGT]”, for which the binding signal (PBM E-score (-0.5 to 0.5)) in data set [3] was determined as 0.496.
“GTGACGTA (double strand) [8-mer GTGACGTA]” yielded a binding signal (PBM E-score (-0.5 to 0.5)) in data set [4] of 0.494.
As for “CAACTCCG (double strand) [8-mer CAACTCCG]”, in data set [3], the binding signal (PBM E-score (-0.5 to 0.5)) was determined as 0.497.
In the case of “CGGAGTTA (double strand) [8-mer CGGAGTTA]”, the binding signal (PBM E-score (-0.5 to 0.5)) in data set [1] was 0.487; in data set [3], 0.495.
Sequence “CTACGTCA (double strand) [8-mer CTACGTCA]” gave a binding signal (PBM E-score (-0.5 to 0.5)) in data set [4] of 0.493.
Sequence “CACGGCGC (double strand) [8-mer CACGGCGC]” registered a binding signal (PBM E-score (-0.5 to 0.5)) in data set [2] of 0.493.
Still for that read-out and setting: under “ACGGCACT (double strand) [8-mer ACGGCACT]” stands 0.489.
Sequence “CAAGTCCG (double strand) [8-mer CAAGTCCG]” showed a binding signal (PBM E-score (-0.5 to 0.5)) in data set [3] of 0.492.
“CGGCACTA (double strand) [8-mer CGGCACTA]” gave a binding signal (PBM E-score (-0.5 to 0.5)) in data set [1] of 0.481.
